Experimental data taken from US20120090043A1, “TARGETS FOR RETROVIRUS ASSOCIATED DISEASES” (priority 2009, published 2012).

What was measured:
Assay in all cases: cell-based or functional assay
HOXA3 (human) = HOXA3 (human) (UniProt O43365)
PDE9A (human) = PDE9A (human) (UniProt O76083)
LOC541468 (human) = LOC541468 (human) (UniProt Q96LR2)
SF3A3 (human) = SF3A3 (human) (UniProt Q12874)
HOXD3 (human) = HOXD3 (human) (UniProt P31249)
MIZF (human) = MIZF (human) (UniProt Q9BQA5)
LNX2 (human) = LNX2 (human) (UniProt Q8N448)
KIF9 (human) = KIF9 (human) (UniProt Q9HAQ2)
DGCR6L (human) = DGCR6L (human) (UniProt Q9BY27)
KIAA1949 (human) = KIAA1949 (human) (UniProt Q6NYC8)
KRT8 (human) = KRT8 (human) (UniProt P05787)
DHRS10 (human) = DHRS10 (human) (UniProt Q9BPX1)
MYEF2 (human) = MYEF2 (human) (UniProt Q9P2K5)
FANCG (human) = FANCG (human) (UniProt O15287)
ZNF614 (human) = ZNF614 (human) (UniProt Q8N883)
NIF3L1 (human) = NIF3L1 (human) (UniProt Q9GZT8)
HOXB9 (human) = HOXB9 (human) (UniProt P17482)
SPG21 (human) = SPG21 (human) (UniProt Q9NZD8)
TTC23 (human) = TTC23 (human) (UniProt Q5W5X9)
FLJ22471 (human) = FLJ22471 (human) (UniProt Q53HC0)
C20orf141 (human) = C20orf141 (human) (UniProt Q9NUB4)
NEFL (human) = NEFL (human) (UniProt P07196)
NOS3 (human) = NOS3 (human) (UniProt P29474)
MRPS6 (human) = MRPS6 (human) (UniProt P82932)
FATE1 (human) = FATE1 (human) (UniProt Q969F0)
LENG1 (human) = LENG1 (human) (UniProt Q96BZ8)
CCDC24 (human) = CCDC24 (human) (UniProt Q8N4L8)

HIV-1 Tat
HIV LTR transactiv. (fold change) (HOXA3 (human)): 0.29 fold change | HIV LTR transactiv. (fold change) (PDE9A (human)): 0.28 fold change | HIV LTR transactiv. (fold change) (LOC541468 (human)): 2.38 fold change | HIV LTR transactiv. (fold change) (SF3A3 (human)): 0.49 fold change | HIV LTR transactiv. (fold change) (HOXD3 (human)): 7.3 fold change | HIV LTR transactiv. (fold change) (MIZF (human)): 2.5 fold change | HIV LTR transactiv. (fold change) (LNX2 (human)): 0.26 fold change

HTLV-1 Tax p40
HTLV LTR transactiv. (fold change) (KIF9 (human)): 0.37 fold change | HTLV LTR transactiv. (fold change) (DGCR6L (human)): 0.24 fold change | HTLV LTR transactiv. (fold change) (KIAA1949 (human)): 0.35 fold change | HTLV LTR transactiv. (fold change) (KRT8 (human)): 0.24 fold change | HTLV LTR transactiv. (fold change) (DHRS10 (human)): 0.41 fold change | HTLV LTR transactiv. (fold change) (MYEF2 (human)): 2.53 fold change | HTLV LTR transactiv. (fold change) (FANCG (human)): 3.48 fold change | HTLV LTR transactiv. (fold change) (ZNF614 (human)): 5.24 fold change | HTLV LTR transactiv. (fold change) (NIF3L1 (human)): 0.39 fold change | HTLV LTR transactiv. (fold change) (HOXB9 (human)): 3.69 fold change | HTLV LTR transactiv. (fold change) (SPG21 (human)): 0.21 fold change | HTLV LTR transactiv. (fold change) (TTC23 (human)): 0.21 fold change | HTLV LTR transactiv. (fold change) (FLJ22471 (human)): 2.25 fold change | HTLV LTR transactiv. (fold change) (C20orf141 (human)): 2.8 fold change | HTLV LTR transactiv. (fold change) (NEFL (human)): 0.45 fold change | HTLV LTR transactiv. (fold change) (NOS3 (human)): 0.45 fold change | HTLV LTR transactiv. (fold change) (MRPS6 (human)): 0.38 fold change | HTLV LTR transactiv. (fold change) (FATE1 (human)): 0.49 fold change | HTLV LTR transactiv. (fold change) (LENG1 (human)): 0.34 fold change | HTLV LTR transactiv. (fold change) (CCDC24 (human)): 2.88 fold change | HTLV LTR transactiv. (fold change) (LNX2 (human)): 0.28 fold change
